Data as given in article PMC3759449.

Legend:
[1] = molecular target: NrCAM, rat, tyrosine-phosphorylated in the FIGQY motif by co-expressed EphB2 (rat) (UniProt P97686)
[2] = molecular target: NrCAM, rat (pcDNA3 plasmid) (rat) (UniProt P97686)

A percent of cells with ankyrinG-EGFP recruited to the plasma membrane, HEK293 cells co-expressing ankyrin/NrCAM/EphB2 [1] of 7% and a percent of cells with ankyrinG-EGFP recruited to the plasma membrane, HEK293 cells co-expressing ankyrin/NrCAM/EphB2 KD (kinase dead mutant K662R) [2] of 84% were found for “ankyrinG-EGFP fusion protein (from UniProt O70511 1-2622) (natural protein)” in this work.
